# Patent US20230416396A1 (Regeneron, published 2023)
# B1: REGN9686 (bispecific antibody, human IgG4 S228P, kappa)
# heavy 1: EVQLVESGGGLVQPGRSLRLSCGASGFTFDDYVMHWVRQIPGKGLEWVAGISWNSGSIGYADSVKGRFTISRDNAKNSLYLQMNSLRAEDTALYFCAKDHIDPYSSSLYYYYGMDVWGQGTTVTVSSASTKGPSVFPLAPCSRSTSESTAALGCLVKDYFPEPVTVSWNSGALTSGVHTFPAVLQSSGLYSLSSVVTVPSSSLGTKTYTCNVDHKPSNTKVDKRVESKYGPPGGGGSGGGGSEVQLVESGGGLVQPGRSLRLSCGASGFTFDDYVMHWVRQIPGKGLEWVAGISWNSGSIGYADSVKGRFTISRDNAKNSLYLQMNSLRAEDTALYFCAKDHIDPYSSSLYYYYGMDVWGQGTTVTVSSASTKGPSVFPLAPCSRSTSESTAALGCLVKDYFPEPVTVSWNSGALTSGVHTFPAVLQSSGLYSLSSVVTVPSSSLGTKTYTCNVDHKPSNTKVDKRVESKYGPPCPPCPAPPVAGPSVFLFPPKPKDTLMISRTPEVTCVVVDVSQEDPEVQFNWYVDGVEVHNAKTKPREEQFNSTYRVVSVLTVLHQDWLNGKEYKCKVSNKGLPSSIEKTISKAKGQPREPQVYTLPPSQEEMTKNQVSLTCLVKGFYPSDIAVEWESNGQPENNYKTTPPVLDSDGSFFLYSRLTVDKSRWQEGNVFSCSVMHEALHNRFTQKSLSLSPGK
# heavy 2: EVQLVESGGGLVQPGRSLRLSCAASGFTFDDYAMHWVRQAPGKGLEWVSGISWKSDNIGYADSVKGRFTISRDNAKNSLYLQMNSLRAEDTALYYCAKALGGWKFDYYYGMDVWGQGTTVTVSSASTKGPSVFPLAPCSRSTSESTAALGCLVKDYFPEPVTVSWNSGALTSGVHTFPAVLQSSGLYSLSSVVTVPSSSLGTKTYTCNVDHKPSNTKVDKRVESKYGPPCPPCPAPPVAGPSVFLFPPKPKDTLMISRTPEVTCVVVDVSQEDPEVQFNWYVDGVEVHNAKTKPREEQFNSTYRVVSVLTVLHQDWLNGKEYKCKVSNKGLPSSIEKTISKAKGQPREPQVYTLPPSQEEMTKNQVSLTCLVKGFYPSDIAVEWESNGQPENNYKTTPPVLDSDGSFFLYSRLTVDKSRWQEGNVFSCSVMHEALHNHYTQKSLSLSLGK
# light: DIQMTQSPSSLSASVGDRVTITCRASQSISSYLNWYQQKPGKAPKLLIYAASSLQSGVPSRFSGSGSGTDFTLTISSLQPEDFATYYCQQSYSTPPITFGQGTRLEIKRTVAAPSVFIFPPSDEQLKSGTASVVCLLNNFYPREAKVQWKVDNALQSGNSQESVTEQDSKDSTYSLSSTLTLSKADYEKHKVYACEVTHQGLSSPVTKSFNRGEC
# notes: 1+2 format, hIgG4P-PVA; The linker between the two 4-1BB Fabs is (G4S)2; also called CD38x4-1BB (1 + 2), (G4S)2; 26812P2 x 35333P2 (IN) + 35333P2 (OUT)
# B2: REGN7633 (bispecific antibody, human IgG4 S228P, kappa)
# heavy 1: QVQLVQSGPEVKNPGAAVKVSCKASGYTFTRFGISWVRQAPGQGLEWMGWISVDNGNANYAQRFQGRVTMTTDTSTSTAYMELRSLRSDDTAVYYCAREWSIAAPGYLDYWGQGTLVTVSSASTKGPSVFPLAPCSRSTSESTAALGCLVKDYFPEPVTVSWNSGALTSGVHTFPAVLQSSGLYSLSSVVTVPSSSLGTKTYTCNVDHKPSNTKVDKRVESKYGPPGGGGSGGGGSGGGGSEVQLVESGGGLVQPGRSLRLSCAASGYTFDDYAMHWVRQAPGKGLEWVSGISWISDVIGYADSVKGRFTISRDNAKNSLYLQMNSLRAEDTALYYCAKDNGGIIVATHYYSYGMDVWGQGTTVTVSSASTKGPSVFPLAPCSRSTSESTAALGCLVKDYFPEPVTVSWNSGALTSGVHTFPAVLQSSGLYSLSSVVTVPSSSLGTKTYTCNVDHKPSNTKVDKRVESKYGPPCPPCPAPPVAGPSVFLFPPKPKDTLMISRTPEVTCVVVDVSQEDPEVQFNWYVDGVEVHNAKTKPREEQFNSTYRVVSVLTVLHQDWLNGKEYKCKVSNKGLPSSIEKTISKAKGQPREPQVYTLPPSQEEMTKNQVSLTCLVKGFYPSDIAVEWESNGQPENNYKTTPPVLDSDGSFFLYSRLTVDKSRWQEGNVFSCSVMHEALHNRFTQKSLSLSPGK
# heavy 2: B1 heavy 2
# light: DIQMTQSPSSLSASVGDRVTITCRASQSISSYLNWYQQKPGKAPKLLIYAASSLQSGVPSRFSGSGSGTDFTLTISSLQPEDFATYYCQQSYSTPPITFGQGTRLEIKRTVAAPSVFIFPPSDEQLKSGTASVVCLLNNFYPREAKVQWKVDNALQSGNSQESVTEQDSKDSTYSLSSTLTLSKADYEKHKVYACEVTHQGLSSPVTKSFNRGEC
# notes: 1+2 format, hIgG4P-PVA; also called CD38x4-1BB (1 + 2); 26812P2 x 25889P2 (IN) + 35388P2 (OUT)
# What was measured:
# [1] = target: T1, human 4-1BB on cells (human, UniProt Q07011 24-255); assay: cell-based or functional assay
# T1 sequence (Q07011 24-255): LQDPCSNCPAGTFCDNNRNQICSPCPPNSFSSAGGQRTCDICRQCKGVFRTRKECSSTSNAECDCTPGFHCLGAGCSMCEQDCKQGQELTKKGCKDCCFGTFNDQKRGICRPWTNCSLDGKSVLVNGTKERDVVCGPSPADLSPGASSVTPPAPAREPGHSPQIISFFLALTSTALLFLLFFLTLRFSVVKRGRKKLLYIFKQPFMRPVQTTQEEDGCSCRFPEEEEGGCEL
# [2] = target: T2, human 4-1BB expressed with a C-terminal murine Fc tag (human, UniProt Q07011 24-186); assay: SPR Biacore 4000, h4-1BB.mFc captured by anti-mouse Fc, antibody as analyte, 25 C
# T2 construct: also called h4-1BB.mFc; REGN3585; not shown: C-terminal murine Fc tag
# T2 sequence (Q07011 24-186 limits assumed): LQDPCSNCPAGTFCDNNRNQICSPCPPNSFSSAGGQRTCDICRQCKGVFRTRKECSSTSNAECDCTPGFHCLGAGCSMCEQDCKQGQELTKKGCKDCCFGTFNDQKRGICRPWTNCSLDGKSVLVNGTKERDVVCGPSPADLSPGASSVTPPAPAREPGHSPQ
# Method: Equilibrium dissociation constants (KD values) for human 4-1BB expressed with a C-terminal murine Fc tag (h4-1BB.mFc, REGN3585) binding to purified anti-CD38×4-1BB 1+2 antibodies were determined using a real-time surface plasmon resonance biosensor using a Biacore 4000 instrument. […] All Biacore binding studies were performed in a buffer composed of 0.01M HEPES pH 7.4, 0.15M NaCl, 3 mM EDTA, 0.05% v/v Surfactant P20 (HBS-EP running buffer). Different concentrations of CD38×4-1BB 1+2 constructs prepared in HBS-EP running buffer (ranging from 100 to 6.25 nM in 4-fold serial dilutions) were injected over the h4-1BB.mFc (REGN3585) captured surface at a flow rate of 30 μL/minute. Antibody-reagent association was monitored for 5 minutes while dissociation in HBS-EP running buffer was monitored for 10 minutes. At the end of each cycle, the h4-1BB.mFc capture surface was regenerated using a 40 sec injection of 10 mM glycine, pH 1.5. All binding kinetics experiments were performed at 25° C.
# (§1) Kinetic association (kₐ) and dissociation (kd) rate constants were determined by fitting the real-time sensorgrams to a 1:1 binding model using Cytiva Insight curve fitting software. Binding dissociation equilibrium constants (KD) and dissociative half-lives (t/2) were calculated from the kinetic rate constants as: […]
# [3] = target: T1, human 4-1BB on cells; assay: cell-based or functional assay; remark: listed apart in the source
# [4] = target: T3, human 4-1BB expressed with a C-terminal myc-myc-hexahistidine tag (human, UniProt Q07011 24-186); assay: SPR Biacore 8k, antibody captured by anti-human Fc, h4-1BB.mmH as analyte, 25 C
# T3 construct: also called h4-1BB.mmH; REGN3584; not shown: C-terminal myc-myc-hexahistidine tag
# T3 sequence (Q07011 24-186 limits assumed): as above
# Method: (§2) Equilibrium dissociation constants (KD values) for human 4-1BB expressed with a C-terminal myc-myc-hexahistidine tag (h4-1BB.mmH, REGN3584) or human 4-1BB expressed with a C-terminal murine Fc tag (h4-1BB.mFc, REGN3585) binding to purified anti-CD38×4-1BB 1+2 antibodies were determined using a real-time surface plasmon resonance biosensor using a Biacore 8k instrument. The CM5 Biacore sensor surface was derivatized by amine coupling with a monoclonal mouse anti-human Fc antibody (REGN2567). All Biacore binding studies were performed in a buffer composed of 0.01M HEPES pH 7.4, 0.15M NaCl, 3 mM EDTA, 0.05% v/v Surfactant P20 (HBS-EP running buffer). […] Antibody-reagent association was monitored for 5 minutes while dissociation in HBS-EP running buffer was monitored for 10 minutes. At the end of each cycle, the anti-CD38×4-1BB 1+2 antibody capture surface was regenerated using a 10 second injection of 20 mM phosphoric acid. All binding kinetics experiments were performed at 25° C.
# as §1
# [5] = target: T1, human 4-1BB on cells; assay: cell-based or functional assay; remark: listed apart in the source
# [6] = target: T2, human 4-1BB expressed with a C-terminal …; assay: SPR Biacore 8k, antibody captured by anti-human Fc, h4-1BB.mFc as analyte, 25 C
# Method: as §2, §1
# [7] = target: T4, human CD38 endogenously expressed on MOLP8 cells (human, UniProt P28907 1-300); assay: flow cytometry on MOLP8 cells (endogenous hCD38), APC anti-human secondary
# T4 construct: whole, on cells; also called hCD38
# Method: The ability of the multispecific antigen binding molecules to bind cells was assessed using flow cytometry. Cell lines were chosen to determine the ability of both the anti-CD38 and anti-4-1BB arms to bind their targets. […] Binding was detected by using a labeled secondary antibody and measuring fluorescence on a flow cytometer.
# HEK293 cells were lifted with trypsin, washed and resuspend in stain buffer (2% FBS in PBS). MOLP8 cells were washed and resuspended in stain buffer. Cells were added to wells of a 96 well V-bottom plate (3×10⁵ cells/well). A 1:4, 9-point, dose titration of test antibodies was diluted in stain buffer and added to cells to a final concentration ranging from 610 fM to 10 nM (a “no antibody” control was included as the ninth point (153fM), labeled as “secondary only”). Cells and antibodies were incubated for 30 min on ice and then washed in stain buffer. Cells were resuspended in 2 ug/ml allophycocyanin (APC) conjugated goat-anti human secondary antibody and incubated for 30 min on ice. Cells were then washed and resuspended in viability dye (according to the manufacturer's protocol) and incubated for 30 min on ice. Cells were then washed with stain buffer and resuspended in 2% PFA for 30 min on ice. After washing, cells were filtered and analyzed by flow cytometry to determine the geometric mean fluorescence intensity (gMFI), which was subsequently plotted using GraphPad Prism software. EC₅₀ values of the antibodies were determined from a 4-parameter logistic equation over a 9-point dose response curve (including secondary only control, representing the ninth point).
binder,measurement,setting,value
B1,"EC50 of IL-2 release, T cells + HEK293/CD20/CD38 + REGN2281",[1],0.0453 nM
same,"EC50 of IL-2 release, T cells + MOLP-8 + IsoC",[1],0.0361 nM
same,"EC50 of IL-2 release, T cells + MOLP-8 + REGN5458",[1],0.0833 nM
same,"EC50 of IL-2 release, T cells + NALM-6",[1],0.0723 nM
same,"MAX IL-2 release, T cells + HEK293/CD20 + REGN2281",[1],57 pg/mL
same,"MAX IL-2 release, T cells + HEK293/CD20/CD38 + REGN2281",[1],709 pg/mL
same,"MAX IL-2 release, T cells + MOLP-8 + IsoC",[1],90 pg/mL
same,"MAX IL-2 release, T cells + MOLP-8 + REGN5458",[1],62 pg/mL
same,"MAX IL-2 release, T cells + NALM-6",[1],169 pg/mL
same,100 nM Ab Bind (RU),[2],232 RU
same,Kd,[2],0.717 nM
same,koff,[2],0.000337 s⁻¹
same,kon,[2],470000 M⁻¹ s⁻¹
same,t½,[2],34.3 min
same,"EC50 of IFNγ release, T cells + HEK293/CD20/CD38 + REGN2281",[3],0.0874 nM
same,"EC50 of IFNγ release, T cells + MOLP-8 + REGN5458",[3],0.102 nM
same,"MAX IFNγ release, T cells + HEK293/CD20 + REGN2281",[3],1450 pg/mL
same,"MAX IFNγ release, T cells + HEK293/CD20/CD38 + REGN2281",[3],6820 pg/mL
same,"MAX IFNγ release, T cells + MOLP-8 + IsoC",[3],85 pg/mL
same,"MAX IFNγ release, T cells + MOLP-8 + REGN5458",[3],3890 pg/mL
same,"MAX IFNγ release, T cells + NALM-6",[3],651 pg/mL
same,100 nM h4-1BB.mmH Bind (RU),[4],101 RU
same,Kd,[4],14.8 nM
same,koff,[4],0.00474 s⁻¹
same,kon,[4],319000 M⁻¹ s⁻¹
same,t½,[4],2.4 min
same,"EC50 of luciferase activity, HEK293/NFkB-Luc/h4-1BB reporter + OPM2",[5],0.018 nM
same,"MAX luciferase activity, HEK293/NFkB-Luc/h4-1BB reporter + HEK293/CD20",[5],1.1e+06 RLU
same,"MAX luciferase activity, HEK293/NFkB-Luc/h4-1BB reporter + HEK293/CD20/CD38",[5],2.4e+06 RLU
same,"MAX luciferase activity, HEK293/NFkB-Luc/h4-1BB reporter + MOLP-8",[5],2.2e+06 RLU
same,"MAX luciferase activity, HEK293/NFkB-Luc/h4-1BB reporter + OPM2",[5],2.1e+06 RLU
same,100 nM h4-1BB.mFc Bind (RU),[6],267 RU
same,Kd,[6],1.2 nM
same,koff,[6],0.000205 s⁻¹
same,kon,[6],171000 M⁻¹ s⁻¹
same,t½,[6],56.3 min
B2,MAX gMFI,[7],88000 gMFI
